B1: HESX1 (parent)
chain: SKYENYFSASERLSLKRELSWYRG

Variants of: B1
Experiment: protein stability index of a GFP-peptide fusion (GPS, HEK-293T) (PSI 1-6); higher = more stable
Details: c terminus: a fixed tail appended
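Note: lentivirally expressed fusions sorted by FACS into six bins by GFP to DsRed ratio, PSI derived from sequencing read proportions per bin multiplied by bin number.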

| Variant | protein stability index |
| --- | --- |
| SKYENYFSASERLSLKVELSWYRG [R17V] | 3.72 |
| SKYENYFSASERLSLKKELSWYRG [R17K] | 2.27 |
| SKYENYFSASERLSLKNELSWYRG [R17N] | 1.76 |
| SKYENYFSASERLSLKYELSWYRG [R17Y] | 2.66 |
| SKYENYFSASERLSLKRELSWYDG [R23D] | 2.1 |
| SKYENYFSASERLSLKRELSWYCG [R23C] | 1.53 |
| SKYENYFSASERLSLKRELSWYQG [R23Q] | 2.51 |
| SKYENYFSASERLSLKRELSWYWG [R23W] | 1.83 |
| SKYENYFSASERLSLKRELSWYFG [R23F] | 2.16 |
| SKYENYFSASERLSLKRELSWYPG [R23P] | 2.18 |
| SKYENYFSASERLSLKRELSWYNG [R23N] | 1.94 |
| SKYENYFSASERLSLKRELSWYHG [R23H] | 2.3 |
| SKYENYFSASERLSLKRELSWYSG [R23S] | 2.1 |
| SKYENYFSASERLSLKRELSWYYG [R23Y] | 1.12 |
| SKYENYFSASERLSLKRELSWYAG [R23A] | 1.85 |
| SKYENYFSASERLSLKRELSWYKG [R23K] | 2.14 |
| SKYENYFSASERLSLHRELSWYRG [K16H] | 1.78 |
| SKYENYFSASERLSLFRELSWYRG [K16F] | 1.37 |
| SKYENYFSASERLSLTRELSWYRG [K16T] | 1.95 |
| SKYENYFSASERLSLLRELSWYRG [K16L] | 2.21 |
| SKYENYFSASERLSLVRELSWYRG [K16V] | 2.16 |
| SKYENYFSASERLSLYRELSWYRG [K16Y] | 1.94 |
| SKYENYFSASERLSLRRELSWYRG [K16R] | 1.42 |
| SKYENYFSASERLSLIRELSWYRG [K16I] | 1.8 |

| Variant | protein stability index |
| --- | --- |
| SKYENYFSASERLSLARELSWYRG [K16A] | 2.32 |
| SKYENYFSASERLSLNRELSWYRG [K16N] | 2.17 |
| SKYENYFSASERLSLSRELSWYRG [K16S] | 1.9 |
| SKYENYFSASERLSLPRELSWYRG [K16P] | 3.04 |
| SKYENYFSASERLFLKRELSWYRG [S14F] | 1.73 |
| SKYENYFSASERLQLKRELSWYRG [S14Q] | 2.36 |
| SKYENYFSASERLELKRELSWYRG [S14E] | 2.14 |
| SKYENYFSASERLLLKRELSWYRG [S14L] | 1.02 |
| SKYENYFSASERLILKRELSWYRG [S14I] | 1.27 |
| SKYENYFSASERLNLKRELSWYRG [S14N] | 2.25 |
| SKYENYFSASERLGLKRELSWYRG [S14G] | 1.33 |
| SKYENYFSASERLMLKRELSWYRG [S14M] | 1.74 |
| SKYENYFSASERLCLKRELSWYRG [S14C] | 2.07 |
| SKYENYFSASERLWLKRELSWYRG [S14W] | 2.21 |
| SKYENYFSASERLRLKRELSWYRG [S14R] | 2.03 |
| SKYENYFSASERLYLKRELSWYRG [S14Y] | 1.92 |
| SKYENYFSASERLDLKRELSWYRG [S14D] | 3.59 |
| SKYENYFSASERLPLKRELSWYRG [S14P] | 2.96 |
| SKYENYFSASERLHLKRELSWYRG [S14H] | 1.99 |
| SKYENYFSASERLSLKRELPWYRG [S20P] | 1.31 |
| SKYENYFSASERLSLKRELQWYRG [S20Q] | 1.94 |
| SKYENYFSASERLSLKRELWWYRG [S20W] | 2.91 |
| SKYENYFSASERLSLKRELKWYRG [S20K] | 1.58 |
| SKYENYFSASERLSLKRELVWYRG [S20V] | 1.24 |

| Variant | protein stability index |
| --- | --- |
| SKYENYFSASERLSLKRELFWYRG [S20F] | 1.66 |
| SKYENYFSASERLSLKRELRWYRG [S20R] | 2.14 |
| SKYENYFSASERLSLKRELIWYRG [S20I] | 2.8 |
| SKYENYFSASERLSLKRELTWYRG [S20T] | 3.72 |
| SKYENYFSASERLSLKRELMWYRG [S20M] | 1.14 |
| SKYENYFSASERLSLKRELLWYRG [S20L] | 2.8 |
| SKYENYFSASERLSLKRELYWYRG [S20Y] | 2.75 |
| SKYENYFSASERLSLKRELSWYRH [G24H] | 2.11 |
| SKYENYFSASERLSLKRELSWYRP [G24P] | 2.46 |
| SKYENYFSASERLSLKRELSWYRA [G24A] | 1.81 |
| SKYENYFSASERLSLKRELSWYRY [G24Y] | 1.45 |
| SKYENYFSASERLSLKRELSWYRN [G24N] | 1.66 |
| SKYENYFSASERLSLKRELSWYRV [G24V] | 2.01 |
| SKYENYFSASERLSLKRELSWYRI [G24I] | 1.81 |
| SKYENYFSASERLSLKRELSWYRT [G24T] | 2.07 |
| SKYENYFSASERLSLKRELSWYRE [G24E] | 2.46 |
| SKYENYFSASERLSLKRELSWYRD [G24D] | 2.12 |
| SKYENYFSASERLSLKRELSWYRL [G24L] | 1.35 |
| SKYENYFSASERLSLKRELSWYRK [G24K] | 2.74 |
| SKYENYFSASERLSLKRELSMYRG [W21M] | 2.31 |
| SKYENYFSASERLSLKRELSSYRG [W21S] | 2.65 |
| SKYENYFSASERLSLKRELSFYRG [W21F] | 2.29 |
| SKYENYFSASERLSLKRELSCYRG [W21C] | 2.2 |
| SKYENYFSASERLSLKRELSGYRG [W21G] | 1.48 |

| Variant | protein stability index |
| --- | --- |
| SKYENYFSASERLSLKRELSYYRG [W21Y] | 2.4 |
| SKYENYFSASERLSLKRELSAYRG [W21A] | 4.19 |
| SKYENYFSASERLSLKRELSNYRG [W21N] | 2.27 |
| SKYENYFSASERLSLKRELSDYRG [W21D] | 3.19 |
| SKYENYFSASERLSLKRELSIYRG [W21I] | 3.04 |
| SKYENYFSASERLSLKRELSTYRG [W21T] | 2.46 |
| SKYENYFSASERLSLKRELSPYRG [W21P] | 2.39 |
| SKYENYFSASERLSLKRELSHYRG [W21H] | 1.73 |
| SKYENYFSASERLSLKRELSQYRG [W21Q] | 2.63 |
| SKYENYFSASERLSLKRELSVYRG [W21V] | 2.2 |
| SKYENYFSASERLSLKRELSKYRG [W21K] | 1.75 |
| SKYENYFSASERLSLKRNLSWYRG [E18N] | 2.06 |
| SKYENYFSASERLSLKRKLSWYRG [E18K] | 1.99 |
| SKYENYFSASERLSLKRQLSWYRG [E18Q] | 1.52 |
| SKYENYFSASERLSLKRDLSWYRG [E18D] | 1.82 |
| SKYENYFSASERLSLKRGLSWYRG [E18G] | 1.87 |
| SKYENYFSASERLSLKRHLSWYRG [E18H] | 1.77 |
| SKYENYFSASERLSLKRRLSWYRG [E18R] | 2.5 |
| SKYENYFSASERLSLKRSLSWYRG [E18S] | 1.38 |
| SKYENYFSASERLSLKRILSWYRG [E18I] | 1.75 |
| SKYENYFSASERLSLKRPLSWYRG [E18P] | 2.07 |
| SKYENYFSASERLSLKRCLSWYRG [E18C] | 1.43 |

Reference: the supplement of paper PMC10567573
